Results: patent US20130122000A1 (TRELLIS BIOSCIENCE, published 2013)
One block for each binder: values may come before it.

Columns and labels:
[1] = molecular target: T1, HER3 extracellular domain (ECD) (UniProt P21860 20-643); assay: FortéBio biosensor (BLI), HER3 ECD on amine-reactive surface; average (Stdev 111,000)
T1 construct: extracellular domain; Coupled to an amine-reactive biosensor surface at 10-15 ug/ml; also called HER3 ECD; ErbB3

[2] = molecular target: HER3 on tumor cells (MCF-7, MB468) (UniProt P21860 20-1342, limits assumed); assay: cell-based or functional assay
[3] = molecular target: T1, HER3 extracellular domain (ECD); assay: FortéBio biosensor (BLI), HER3 ECD on amine-reactive surface, antibody in solution from 67 nM, 3-fold series; average (Stdev 2,660)
Protocol: Of these, six of these murine antibodies were assayed quantitatively for their binding affinities to HER3 ECD according to the commercially available FortéBio® method. In this method, ECD at 10-15 μg/ml was captured onto an amine-reactive surface in 10 mM MES, pH 6.0 at 25° C. Binding capacity is tested by treating the surface with unlabeled antibody. As unlabeled antibody accumulates on the surface, the optical characteristics of the surface are changed, thus allowing measurement of mass accumulation without requiring labeling. This is a modification of the Biacore™ style analysis. The antibodies were tested at 67 nM as the highest concentration and diluted in a three-fold dilution series. Response data for the various concentrations were individually and globally fitted to determine the binding affinities.

HER3:heregulin complex = molecular target: T2, HER3:heregulin complex (UniProt P21860 20-643; Q02297 177-241, limits assumed); assay: FortéBio biosensor (BLI), HER3 ECD on amine surface loaded with heregulin at 10 ug/ml, antibody from 67 nM, 3-fold series; average (Stdev 113)
T2 construct: Non-covalent receptor-ligand complex, formed on the biosensor by adding heregulin to immobilised HER3 ECD; also called heregulin active complex with HER3; complex of HER3 ECD with heregulin
Protocol: The binding assay was repeated for two of the antibodies, 1G4 and 14B10 using the same FortéBio® method. HER3 ECD at 10-15 μg/ml was again captured onto the amine surface in the same buffer. Heregulin at 10 μg/ml was added to form the HER3:heregulin complex on the surface and the antibodies tested at 67 nM once again using three-fold dilution series and the data were fitted to determine binding constants.

T1 sequence (P21860 20-643 limits assumed): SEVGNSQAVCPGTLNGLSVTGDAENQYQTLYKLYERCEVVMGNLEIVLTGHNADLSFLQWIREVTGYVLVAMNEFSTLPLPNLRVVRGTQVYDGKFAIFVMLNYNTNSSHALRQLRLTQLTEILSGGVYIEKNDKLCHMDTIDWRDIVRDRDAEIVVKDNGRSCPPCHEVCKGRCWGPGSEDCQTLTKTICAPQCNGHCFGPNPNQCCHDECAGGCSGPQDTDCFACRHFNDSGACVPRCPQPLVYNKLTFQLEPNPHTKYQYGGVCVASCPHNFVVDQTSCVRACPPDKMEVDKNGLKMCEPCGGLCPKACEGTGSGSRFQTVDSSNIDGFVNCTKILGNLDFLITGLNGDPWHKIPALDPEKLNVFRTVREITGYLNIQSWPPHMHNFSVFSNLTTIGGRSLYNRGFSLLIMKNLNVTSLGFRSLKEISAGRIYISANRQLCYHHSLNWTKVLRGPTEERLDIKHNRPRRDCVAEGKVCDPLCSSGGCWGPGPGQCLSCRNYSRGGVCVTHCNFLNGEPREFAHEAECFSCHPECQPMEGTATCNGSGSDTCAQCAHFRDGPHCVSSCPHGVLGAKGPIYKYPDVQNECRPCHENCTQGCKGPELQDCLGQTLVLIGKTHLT
T2 sequence (P21860 20-643 limits assumed, one chain of several): as the sequence (P21860 20-643 limits assumed) above
HER3 on tumor cells (MCF-7, MB468), sequence (P21860 20-1342 limits assumed): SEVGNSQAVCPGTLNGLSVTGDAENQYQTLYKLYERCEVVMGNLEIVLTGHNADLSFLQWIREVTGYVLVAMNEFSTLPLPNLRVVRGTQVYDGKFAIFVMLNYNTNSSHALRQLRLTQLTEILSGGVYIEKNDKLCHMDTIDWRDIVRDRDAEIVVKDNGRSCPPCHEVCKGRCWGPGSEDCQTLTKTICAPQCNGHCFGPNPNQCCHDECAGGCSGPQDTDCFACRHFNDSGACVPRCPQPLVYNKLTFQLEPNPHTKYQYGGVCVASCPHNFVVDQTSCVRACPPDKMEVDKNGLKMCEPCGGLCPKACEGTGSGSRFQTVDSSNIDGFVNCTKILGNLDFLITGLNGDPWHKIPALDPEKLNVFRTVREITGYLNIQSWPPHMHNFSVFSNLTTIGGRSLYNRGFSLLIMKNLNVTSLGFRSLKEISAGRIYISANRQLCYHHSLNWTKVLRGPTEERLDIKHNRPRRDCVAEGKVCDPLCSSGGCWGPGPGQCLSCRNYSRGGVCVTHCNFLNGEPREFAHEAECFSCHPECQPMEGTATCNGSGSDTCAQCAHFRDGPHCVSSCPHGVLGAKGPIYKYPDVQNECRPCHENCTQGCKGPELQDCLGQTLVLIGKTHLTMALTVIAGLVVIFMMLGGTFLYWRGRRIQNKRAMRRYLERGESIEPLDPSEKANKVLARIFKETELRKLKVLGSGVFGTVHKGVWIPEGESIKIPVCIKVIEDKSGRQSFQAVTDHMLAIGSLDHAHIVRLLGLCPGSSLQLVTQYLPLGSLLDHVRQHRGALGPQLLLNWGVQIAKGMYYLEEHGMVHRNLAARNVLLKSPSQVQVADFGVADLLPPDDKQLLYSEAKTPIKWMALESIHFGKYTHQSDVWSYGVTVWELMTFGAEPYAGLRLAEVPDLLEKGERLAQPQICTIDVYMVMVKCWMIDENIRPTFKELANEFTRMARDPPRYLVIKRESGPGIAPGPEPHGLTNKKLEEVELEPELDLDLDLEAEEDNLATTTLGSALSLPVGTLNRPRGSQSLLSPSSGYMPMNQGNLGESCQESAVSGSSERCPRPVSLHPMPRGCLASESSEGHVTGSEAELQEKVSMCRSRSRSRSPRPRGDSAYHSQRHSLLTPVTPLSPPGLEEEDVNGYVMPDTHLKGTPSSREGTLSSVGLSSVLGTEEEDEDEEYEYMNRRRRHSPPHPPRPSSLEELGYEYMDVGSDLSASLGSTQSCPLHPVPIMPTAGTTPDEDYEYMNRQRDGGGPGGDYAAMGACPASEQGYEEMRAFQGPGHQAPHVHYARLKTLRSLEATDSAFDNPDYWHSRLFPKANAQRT

Kd [1]: 165 nM
B1: heregulin (ligand, UniProt Q02297-6 177-241, looked up)
chain: SHLVKCAEKEKTFCVNGGECFMVKDLSNPSRYLCKCPNEFTGDRCQNYVMASFYKHLGIEFMEAE
notes: also called HRG

IC50, inhibition of HER3 tyrosine phosphorylation in MCF-7 cells stimulated with heregulin [2]: ~10 ng/mL | Kd [3]: 2.81 nM | Kd (HER3:heregulin complex): 0.327 nM
B2: 1G4 mAb (antibody, V domains shown)
VH: GASVKMSCKASGYTFTDYVISWVKQRTGQGLEWIGEIYPGSGRYYHNEKFKGKATLTADKSSNTAYIQLSSLTSEDSAVYFCTRSLQRLRYFDVWGAGTTVTVSS
VL: QSPATLSVTPGDRVSLSCRASQSISDYLHWYQQKSHESPRLLIKYGSQSISGIPSRFSGSGSGTDFTLSISSVETEDFGMYFCQQSNSWPLTFGAGTKLELKR
notes: Murine monoclonal antibody from a hybridoma; also called IG4; antibody 1G4
